Test [1] addresses T1, peptide 4-12 (L509A), bio-HTANRPEDECVGEGAA
T1 peptide: Biotin-HTANRPEDECVGEGAA
As to the kind of experiment: ELISA on alanine scan biotin peptides. On the technique in general: An ELISA detects its analyte on a solid surface through an enzyme-linked reagent.

The target in test [2] is T2, peptide 4-7 (D502A), bio-HTANRPEAECVGEGLA
T2 peptide: Biotin-HTANRPEAECVGEGLA
As to the kind of experiment: ELISA on alanine scan biotin peptides.

Test [3] has as its target T3, peptide 4-10 (V505A), bio-HTANRPEDECAGEGLA
T3 peptide: Biotin-HTANRPEDECAGEGLA
As to the kind of experiment: ELISA on alanine scan biotin peptides.

The target of test [4] is T4, peptide 4-11 (E507A), bio-HTANRPEDECVGAGLA
T4 peptide: Biotin-HTANRPEDECVGAGLA
As to the kind of experiment: ELISA on alanine scan biotin peptides.

The target of test [5] is T5, HER2 on tumor cells with high HER2 expression (breast cancer cells BT474; SKBR3) (human, UniProt P04626 23-1255).
T5 construct: whole, on cells; Endogenous full-length receptor on human tumor cell lines; also called breast cancer cells BT474 (with high HER2 expression on the cell surface); HER2 in BT474 and SKBR3 cells
As to the kind of experiment: FACS on BT474 cells.

The target in test [6] is T6, peptide 4-6, bio-HTANRPADECVGEGLA
T6 peptide: Biotin-HTANRPADECVGEGLA
As to the kind of experiment: peptide ELISA, alanine scan.

Test [7] concerns the target T7, peptide 4-8, bio-HTANRPEDACVGEGLA
T7 peptide: Biotin-HTANRPEDACVGEGLA
As to the kind of experiment: peptide ELISA, alanine scan.

Test [8] addresses T8, peptide 4-9, bio-HTANRPEDEAVGEGLA
T8 peptide: Biotin-HTANRPEDEAVGEGLA
As to the kind of experiment: peptide ELISA, alanine scan.

The target in test [9] is T9, peptide 4-3, bio-HTAARPEDECVGEGLA
T9 peptide: Biotin-HTAARPEDECVGEGLA
As to the kind of experiment: peptide ELISA, alanine scan.

The target of test [10] is T10, peptide 4-2, bio-HAANRPEDECVGEGLA
T10 peptide: Biotin-HAANRPEDECVGEGLA
As to the kind of experiment: peptide ELISA, alanine scan.

Test [11] addresses T11, peptide 4-5, bio-HTANRAEDECVGEGLA
T11 peptide: Biotin-HTANRAEDECVGEGLA
As to the kind of experiment: peptide ELISA, alanine scan.

For test [12], the target named is T12, peptide 4-1, bio-ATANRPEDECVGEGLA
T12 peptide: Biotin-ATANRPEDECVGEGLA
As to the kind of experiment: peptide ELISA, alanine scan.

Test [13] has as its target T13, peptide 4-4, bio-HTANAPEDECVGEGLA
T13 peptide: Biotin-HTANAPEDECVGEGLA
As to the kind of experiment: peptide ELISA, alanine scan.

The target of test [14] is T14, HER2-ECD-E507A (human, UniProt P04626 23-652).
T14 construct: Site-directed mutant of HER2-ECD-His-pTT5, expressed in HEK293E
As to the kind of experiment: ELISA on coated HER2-ECD-E507A; E507A mutant.

For test [15], the target named is T15, HER2-ECD-D502A (human, UniProt P04626 23-652).
T15 construct: Site-directed mutant of HER2-ECD-His-pTT5, expressed in HEK293E
As to the kind of experiment: ELISA on coated HER2-ECD-D502A; D502A mutant.

The target of test [16] is T16, human HER2-ECD protein (1 to 652 amino acids of NP_004439.2, 6xHis tag at the C-terminus) (human, UniProt P04626 23-652).
T16 construct: Homemade, expressed in CHO cells from HER2-ECD-His-pTT5; also called HER2-ECD-His; HER2-ECD-fl(1-652)
As to the kind of experiment: ELISA on coated HER2-ECD protein; wild-type HER2-ECD.

The target of test [17] is T17, HER2-ECD-V505A (human, UniProt P04626 23-652).
T17 construct: Site-directed mutant of HER2-ECD-His-pTT5, expressed in HEK293E
As to the kind of experiment: ELISA on coated HER2-ECD-V505A (printed HER2-ECD-E505A); V505A mutant (printed E505A).

In test [18] the target is T18, HER2-ECD-DI-III.
T18 construct: Truncated human HER2-ECD construct; also called HER2-ECD-DI-DIII(1-510)
T18 receptor fragment: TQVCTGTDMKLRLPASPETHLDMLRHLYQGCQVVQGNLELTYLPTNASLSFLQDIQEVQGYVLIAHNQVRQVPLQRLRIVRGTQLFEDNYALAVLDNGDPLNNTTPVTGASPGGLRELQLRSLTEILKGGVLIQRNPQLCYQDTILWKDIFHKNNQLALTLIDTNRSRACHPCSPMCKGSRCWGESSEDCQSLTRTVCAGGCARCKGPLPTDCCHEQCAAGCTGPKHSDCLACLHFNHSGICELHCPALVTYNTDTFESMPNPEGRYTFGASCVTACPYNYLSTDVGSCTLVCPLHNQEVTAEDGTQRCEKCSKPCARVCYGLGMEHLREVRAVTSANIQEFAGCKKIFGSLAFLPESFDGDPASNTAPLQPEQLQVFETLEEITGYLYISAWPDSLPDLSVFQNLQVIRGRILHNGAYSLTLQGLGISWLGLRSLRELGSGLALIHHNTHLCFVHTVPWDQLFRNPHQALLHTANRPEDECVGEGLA
As to the kind of experiment: Western blot by the method of Example 3.2 (reduced-denatured protein).

Test [19] deals with T16, human HER2-ECD protein (1 to 652 amino …). As to the kind of experiment: competitive ELISA on coated human HER2-ECD; competitor: biotinylated 19H6 (10 ng/mL, mixed 1:1).
The target of test [20] is T19, peptide HA-21, bio-HQALLHTANRPEDECVGEGLA (490-510) (N-terminal biotin).
T19 peptide: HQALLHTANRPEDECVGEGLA
As to the kind of experiment: ELISA on biotin peptides of HER2-ECD DIII.

Test [21] addresses T16, human HER2-ECD protein (1 to 652 amino …). As to the kind of experiment: ELISA on coated human HER2-ECD.
The target of test [22] is T20, peptide 3-4, bio-RPEDECVGEGLA (499-510).
T20 peptide: Biotin-RPEDECVGEGLA
As to the kind of experiment: peptide ELISA.

Test [23] addresses T21, 495-510.
T21 peptide: HTANRPEDECVGEGLA
As to the kind of experiment: peptide ELISA.

In test [24] the target is T16, human HER2-ECD protein (1 to 652 amino …). As to the kind of experiment: ELISA on coated human HER2-ECD; chimeric 19H6-ch, FIG. 22 experiment.
The target is the same in test [25]. As to the kind of experiment: ELISA on coated human HER2-ECD; humanized 19H6-Hu.
For test [26], the target named is T22, HER2-ECD protein of rat (rat, UniProt P06494 23-654).
T22 construct: extracellular domain; Bought; also called Rat-HER2-ECD
As to the kind of experiment: ELISA, antigen coated at 0.2 µg/well.

The target in test [27] is T23, human HER4 protein (human, UniProt Q15303 26-649, limits assumed).
T23 construct: Bought
T23 sequence (looked up): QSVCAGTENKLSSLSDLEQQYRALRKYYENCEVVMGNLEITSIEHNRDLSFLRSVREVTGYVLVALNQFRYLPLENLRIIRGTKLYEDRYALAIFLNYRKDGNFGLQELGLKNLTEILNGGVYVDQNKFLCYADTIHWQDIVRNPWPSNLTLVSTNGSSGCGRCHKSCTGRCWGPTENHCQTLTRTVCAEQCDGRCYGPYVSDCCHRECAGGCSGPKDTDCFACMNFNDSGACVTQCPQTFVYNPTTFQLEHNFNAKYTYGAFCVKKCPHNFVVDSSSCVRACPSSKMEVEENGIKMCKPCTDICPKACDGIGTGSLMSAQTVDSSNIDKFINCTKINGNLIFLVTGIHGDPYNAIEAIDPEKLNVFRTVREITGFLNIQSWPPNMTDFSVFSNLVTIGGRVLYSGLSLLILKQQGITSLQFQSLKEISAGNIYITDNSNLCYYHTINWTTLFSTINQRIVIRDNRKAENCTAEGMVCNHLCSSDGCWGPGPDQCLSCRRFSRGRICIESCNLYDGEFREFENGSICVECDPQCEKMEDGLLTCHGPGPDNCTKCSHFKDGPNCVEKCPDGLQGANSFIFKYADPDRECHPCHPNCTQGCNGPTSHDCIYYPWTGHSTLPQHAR
As to the kind of experiment: ELISA, antigen coated at 0.2 µg/well.

For test [28], the target named is T24, human HER1 protein (human, UniProt P00533 25-645).
T24 construct: Bought
As to the kind of experiment: ELISA, antigen coated at 0.2 µg/well.

For test [29], the target named is T25, human HER3 protein (human, UniProt P21860 20-643).
T25 construct: Bought
As to the kind of experiment: ELISA, antigen coated at 0.2 µg/well.

Test [30] addresses T16, human HER2-ECD protein (1 to 652 amino …). As to the kind of experiment: Biacore, antibody captured on Protein A chip, HER2-ECD as analyte.
Test [31] shares this target. As to the kind of experiment: ELISA on coated protein labelled HER2 on the sheet (taken as the human HER2-ECD of paragraph 112), positive control of the selectivity assay of Example 7.
The target of test [32] is T26, HER2-ECD protein of cynomolgus monkey (cynomolgus monkey, UniProt A0A2K5WUT7 1-622).
T26 construct: extracellular domain; Bought; also called Cyno-HER2-ECD
As to the kind of experiment: ELISA, Cyno-HER2-ECD coated at 0.2 µg/well.

Test [33] concerns the target T16, human HER2-ECD protein (1 to 652 amino …). As to the kind of experiment: ELISA on coated human HER2-ECD; humanized 19H6-graft.

Substitutions are numbered along the chain they refer to. Ends that are not written are not given here. * marks the point of attachment. Biotin = O=C1N[C@H]2[C@H](CS[C@H]2CCCCC(=O)*)N1

B1: murine anti-human HER2 monoclonal antibody 19H6 (antibody, V domains shown)
VH: QVQLQQSGPELVRPGESVKISCKGSGYTFTDYAIHWVKQSHAKSLEWIGVFSIYYENINYNQKFKGKATMTVDKSSSTAYLDLARLTSEDSAIYYCARRDGGTINYWGQGTSVTVSS
VL: DVVMTQTPLSLPVSLGDQASISCRSSQSLVHSNGNTYLHWYLQKPGQSPKLLIYKVSNRFSGVPDRFSGSGSGTDFTLKISRVEAEDLGVYFCSQSTHIPWTFGGGTKLEIK
notes: Hybridoma-derived mouse antibody purified on Protein G; also called murine antibody 19H6
Turning to B1, the binding result is reported as “binds” in test [1]; “no binding” in test [2]; “no binding” in test [3]; “no binding” in test [4]; “binds” in test [6]; “binds” in test [7]. Further, the binding result in test [8], in test [9], in test [10], in [11], in test [12] and in test [13] was “binds” each time. The binding result in [18], in test [20], in test [22] and in test [23] was “binds” throughout. Besides, the EC50 (usually the midpoint of the concentration-response curve) was determined as 1.1 nM in [5]; 0.867 nM in test [14]; 0.05 nM in test [15]; 0.041 nM in test [16]; 0.038 nM in test [17]; 0.28 nM in [21]. Also, in [19], the “IC50 (read off the curve)” value was approximately 1 nM.

B2: chimeric antibody 19H6-ch (antibody, human IgG1, kappa, V domains shown)
VH: B1 VH
VL: DVVMTQTPLSLPVSLGDQASISCRSSQSLVHSNGNTYLHWYLQKPGQSPKLLIYKVSNRFSGVPDRFSGSGSGTDFTLKISRVEAEDLGVYFCSQSTHIPWTFGGGTKLEIKR
notes: 19H6 variable regions spliced with human IgG1 and kappa constant regions; expressed in HEK-293E
Take B2: the EC50 is 1.5 nM in [5], 0.05 nM in test [24] and 0.1 nM in [21].

B3: humanized antibody 19H6-Hu (antibody, human IgG1, kappa, V domains shown)
VH: QVQLVQSGAEVKKPGASVKVSCKGSGYTFTDYAIHWVRQAPGQSLEWIGVFSIYYENINYNQKFKGRATMTVDKSTSTAYMELRSLRSDDTAVYYCARRDGGTINYWGQGTLVTVSS
VL: B2 VL with T7S, S14T, D17Q, Q18P, L42Q, K44R, K50R, L88V, G105Q, L109V
Turning to B3, the figures for the EC50 in test [5], in test [25] and in test [32] were 1.9 nM, 0.06 nM and 0.1 nM, respectively. Moreover, the binding result in [26], in [27], in test [28] and in [29] was “no binding” each time. Moreover, the Kd (usually the equilibrium constant for the complex coming apart) in test [30] amounted to 0.713 nM. For the same molecule, the koff (in general, a measure of how fast the partners let go of each other) in [30] amounted to 0.000111 s⁻¹. For the same molecule, the kon (commonly the second-order rate constant of association) in test [30] was 155000 M⁻¹ s⁻¹. Also, the EC50 (read off the curve) (as a rule, the concentration needed to bring the measured effect to its halfway point) in [31] is approximately 0.1 nM.

B4: humanized antibody 19H6-graft (antibody, human IgG1, kappa, V domains shown)
VH: B3 VH with G24A, S44G, I48M, A68V, V72T, K74T
VL: DVVMTQSPLSLPVTLGQPASISCRSSQSLVHSNGNTYLHWFQQRPGQSPRRLIYKVSNRFSGVPDRFSGSGSGTDFTLKISRVEAEDVGVYYCSQSTHIPWTFGQGTKVEIKR
notes: Constant regions tied by the words 'The same constant region as that of 19H6-ch'
For B4, the midpoint of the response in [33], the EC50, lay at 0.5 nM.

The values above are taken from patent publication US20210309759A1 (SUNSHINE GUOJIAN PHARMACEUTICAL SHANGHAI, published 2021).
